Here are results for 24 molecules from patent publication US20260092121A1 (TALEM THERAPEUTICS, published 2026).

Sequences and labels used below:
B1: anti-CD3 Fab clone 5-C03 (Fab, V domains shown)
VH: QVQLQQSGPGLVKPSQTLSLTCAISGDSVSSNSAAWNWIRQSPSRGLEWLGRTYYRSKWYNDYAVSVKSRITINPDTSKNQFSLQLNSVTPEDTAVYYCATWGMDVWGQGTTVTVSS
VL: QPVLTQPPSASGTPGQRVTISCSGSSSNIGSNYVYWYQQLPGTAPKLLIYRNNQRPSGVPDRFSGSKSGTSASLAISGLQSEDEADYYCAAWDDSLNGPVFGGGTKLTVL
notes: Fab, HEK293
B2: anti-CD3 Fab clone 2-C02 (Fab, V domains shown)
VH: B1 VH with Q85H
VL: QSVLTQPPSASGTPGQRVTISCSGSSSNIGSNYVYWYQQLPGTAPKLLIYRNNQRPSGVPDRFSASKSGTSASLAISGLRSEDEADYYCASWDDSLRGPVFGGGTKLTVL
notes: Fab, HEK293
B3: anti-CD3 Fab clone 6-C04 (Fab, V domains shown)
VH: B1 VH with Q85H, T112M
VL: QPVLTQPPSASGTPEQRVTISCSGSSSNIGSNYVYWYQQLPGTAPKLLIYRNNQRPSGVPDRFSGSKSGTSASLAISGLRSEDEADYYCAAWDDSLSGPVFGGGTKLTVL
notes: Fab, HEK293
B4: anti-CD3 Fab clone 1-G11 (Fab, V domains shown)
VH: QVQLVQSGAEVKKPGASVKVSCKASGYTFTSYGISWVRQAPGQGLEWMGWISAYNGNTNYAQKLQGRVTMTTDTPTSTAYMEVRSLRSDDTAVYYCAREVNYGLDVWGQGTLVTVSS
VL: QPVLTQPPSASGTPGQRVTISCSGSSSNIGSKYVYWYQQLPGTAPKLLIYRNNQRPSGVPDRFSGSKSGTSASLVISGLRSEDEADYHCAAWDDSLSGRVFGGGTKLTVL
notes: Fab, HEK293
B5: anti-CD3 Fab clone 3-B05 (Fab, V domains shown)
VH: QVQLLQSAGGVVQPGRSLRLSCAASGFTFSTYAVHWVRQAPGKGLEWVAAISYDGAGKYYGDSVRGRFTISRDDSKNTVYLQMNSLRAEDTAVYYCAGEHYTLTDEEFDFWGQGTLVTVSS
VL: QSVLTQPPSVSAAPGQKVTISCSGSASNIGNNYVSWYQQLPGTAPKLLIYDNNQRPSGIPDRFSGSKSGTSATLGITGLQTGDEADYYCGTWDTSLRGVVFGGGTKVTVL
notes: Fab, HEK293
B6: anti-CD3 Fab clone 8-B12 (Fab, V domains shown)
VH: HVQLVQSGGGSAQHGGSLRLSCAASGFTFNNSYMNWVRQAPGKRLEWISTISRGGNSVYYADSVKGRFTVSRDNTKNLTFLQMDSLRDEDTAVYYCAKGGDYLYWGQGTLVTVSS
VL: NFMLTQPHSVSESPGKTVTLSCTRSSGSIASKYVQWYQQRPGSAPTIVIFDDDRRPSGVPDRFSGSIDRSSNSASLTIFGMKTEDEADYYCQSYDSSNWVFGGGTKLTVL
notes: Fab, HEK293
B7: anti-CD3 Fab clone 1-C12 (Fab, V domains shown)
VH: QVQLQQSGPGLVKPSQTLSLTCAISGDSVSSNSAAWNWIRQSPSRGLEWLGRTYYRSKWYNDYAVSVKSRITINPDTSKNQFSLQLNSVTPEDTAVYYCARGITGTGYGMDVWGQGTLVTVSS
VL: QSVLTQPPSASGTPGQRVTISCSGSSSNIGRNHVYWYQQLPGTAPKLLIYNNDQRPSGVPDRFSGSKSGTSGSLTISGLQAEDEADYYCAAWDDSLSSGVFGGGTKVTVL
notes: Fab, HEK293
B8: anti-CD3 Fab clone 7-G01 (Fab, V domains shown)
VH: QVQLVQSGPEVKKPGASVNISCKTSGYTFRNYYVHWVRQAPGQGFEYMGRVNPNSGNARYAQKFQGRVAMTSDTSTSTAYMELSSLRSEDTAVYYCAREPPATVAYYYGMDVWGQGTTVTVSS
VL: NFMLTQPHSVSESPGKTVTISCTGSSGSIASNYVHWYQQRPGSAPTTVIYEDNQRPSGVPDRFSGSIDSSSNSASLTISGLKTEDEADYYCRSYDSSNRNWVFGGGTKLTVL
notes: Fab, HEK293
B9: anti-CD3 Fab clone 7-A11 (Fab, V domains shown)
VH: EVQLVESGGGVVQPGRSLRLSCAASGFTFSSYGIHWVRQAPGKGLEWVSAISGSGGSTYYADSVKGRFTISRDNAKNSLYLQMNSLRDEDTAVYYCARERLIGMDVWGQGTTVTVSS
VL: NFMLTQPHSVAESPGKTVTISCTRSSGSIASNYVQWYQQRPGSAPTTVIYEDNQRPSGVPDRFSGSIDSSSNSASLTISGLKTEDEADYYCQSYDSGNPRVFGGGTKLTVL
notes: Fab, HEK293
B10: anti-CD3 Fab clone 3-A06 (Fab, V domains shown)
VH: QVTLRESGGGLVKPGGSLRLSCSASGFTFRGFYMAWIRQAPGKGLEWVAYISSSGSAVYHADSVKGRFTVSRDNAKNLMYLEMNSLRADDTAVYYCARDGGTGGFDYWGQGTLVTVSS
VL: NFMLTQPHSVSESPGKTVAISCSRSSGSVASNYVQWYQQRPGNVPTTIIYQDNQRPSGVPDRFSGSIDKSSNSASLTISGLKTEDEADYYCQSYDGRRLIFGGGTKLTVL
notes: Fab, HEK293; not the anti-TrkB clone 3A06
B11: anti-CD3 Fab clone 7-B02 (Fab, V domains shown)
VH: QVQLVQSGGGLVQPGGSLRLSCAASGFTFSRYSMSWVRQAPGKGLEWVSSISGGGGSTYYADSVKGRFTISRDNSDGSVYLKMNSLAAGDTAAYYCVRGGWYRTPFEFWGRGTLVTVSS
VL: SYVLTQPPSVSASPGQTASITCSGHKLGDKYTSWYQQKPGQSPVLVIYQDNKRPSGIPERFSGSNSGNTATLTISGTQAMDEADYYCQAWDSSTNYVFGTGTKLTVL
notes: Fab, HEK293
B12: anti-CD3 Fab clone 3-C04 (Fab, V domains shown)
VH: EVQLVESGGGLVQPGGSLRLSCAASGFTFNNFYMNWVRQAPGKGLEWISTISRGGNSVYYADSVKGRFTVSRDNAKNSLFLQMDSLRDEDTAVYYCVRGGDFLYWGQGTLVTVSS
VL: NFMLTQPHSVSESPGKTVTISCTRSTGSIAGNYVQWYQQRPGSSPTTVILEDKQRPSGVPDRFSGSIDTSSNSATLTISGLKTEDEADYYCQSYDSGNVIFGGGTKLTVL
notes: Fab, HEK293
B13: anti-CD3 Fab clone 4-G04 (Fab, V domains shown)
VH: QVNLRESGGGVVQPGGSLRLSCAASGFTFRRYGMNWIRQAPGKGLEWVSSISSSSSYIYYADSVKGRFTISRDNAKNSLYLQMNSLRAEDTAMYYCVRDGRFINGLDVWGQGTLVTVSS
VL: NFMLTQPHSVSESPGRTVTISCTRSSGSIASNYVQWYQQRPGSSPTTVIYDDKKRPSGVPDRFSGSIDSSTNSASLTISGLKTEDEADYYCQSYDSSNHWVFGGGTKVTVL
notes: Fab, HEK293
B14: anti-CD3 Fab clone 5-A05 (Fab, V domains shown)
VH: QVQLVQSGAEGKKPGSSVKVSCKASGGTFSSYAISWVRQAPGQGLEWMGGIIPIFGTANYAQKFQGRVTITADESTSTAYMELRSLRSDDTAVYYCARDAVVVADSGSMDVWGQGTTVTVSS
VL: not shown
notes: Fab, HEK293
B15: anti-CD3 Fab clone 1-H01 (Fab, V domains shown)
VH: B14 VH with G11V, R84S, D89E
VL: not shown
notes: Fab, HEK293
B16: anti-CD3 Fab clone 3-A03 (Fab, V domains shown)
VH: EVQLVESGGGVVQPGRSLRLSCAASGFTFSSYAMHWVRQAPGKGLEWVSAISGSGGSTYYADSVKGRFTISRDNSKNTLYLQMNSLRAEDTAVYYCARDAHDYWGQGTLVTVSS
VL: QSVLTQPPSVSAAPGQKATISCSGGSSNLGNNYVSWYQQLPGTAPKLLIYDNNKRPSGIPDRFSGSKSGTSAALAITGLQTGDEADYYCGTWDSSLSAGVFGGGTKLTVL
notes: Fab, HEK293
B17: anti-CD3 Fab clone 3-B04 (Fab, V domains shown)
VH: QVQLVQSGGGLVQPGRSLRLSCAASGFTFDDFAMHWVRQAPGKGLEWVSGITWNSAATIYADSVKGRFTISRDNAKNSLYLQMNSLRPEDTAVYYCARDRGGPKDPFDIWGQGTMVTVSS
VL: B16 VL with Q16K, A18V, L29I, N31K, A73T, A75G, G99V
notes: Fab, HEK293; not the anti-TrkB clone 3B04
B18: anti-CD3 Fab clone 1-D03 (Fab, V domains shown)
VH: EVQLVQSGGGLVKPGRSLRLSCTASGFTFGDYAMSWFRQAPGKGLEWVGFIRSKAYGGTTEYAASVKGRFTISRDDSKSIAYLQMNSLKTEDTAVYYCTRVSDIYGMDVWGQGTTVTVSS
VL: B16 VL with A18V, G25S, L29I, A73T, A75G, G90A, S94D, S97K
notes: Fab, HEK293
B19: anti-CD3 Fab clone 3-A05 (Fab, V domains shown)
VH: QVQLLQSAAEVKKPGASVKVPCKASGYTFTGHYMHWVRQAPGQGLEWMGIINPRGGSTSYAQKFQGRVTMTRDTSTSTVYMELSSLRSEDTAVYYCARESIAAAGPYFDYWGQGTLVTVSS
VL: QSALTQPHSVSESPGKTVTISCTRTSGRIGSNYVQWYQQRPGSAPTVVIYEDNQRPSGVPDRFSGSIDSSTNSASLTISRLKTEDEADYYCQSYDSGVVVVFGGGTKLTV
notes: Fab, HEK293; not the anti-TrkB clone 3A05
B20: anti-CD3 Fab clone 4-A01 (Fab, V domains shown)
VH: QVQLVQSEGGLVQPGGSLRLSCAASGFSFGSSAMSWVRQAPGRGLEWVSGISHSGSTTYYADSVKGRFTISRDNSKNTLYLQMNSLRVEDTAVYYCAKIGAYGYYFHYWGQGTLVTVSS
VL: NFMLTQPHSVSESPGKTVTISCTGSGGNIGNNYVQWYQQRPDSPPSTVIYDDSQRPSGVPDRFSGSIDRSSNSASLTISGLRTEDEADYYCQSSDSGRVVFGGGTKLTV
notes: Fab, HEK293
B21: anti-CD3 Fab clone 4-G03 (Fab, V domains shown)
VH: B20 VH with V5L, E8A, F27Y, V88A
VL: NFMLTQPHSVSESPGKTVTISCTGNGGNIASNYVQWYQHRPDSAPIAVIYDDSQRPSGIPDRFSGSIDRSSNSASLTISGLRPEDEADYYCQSSDNANVVFGGGTKLTVL
notes: Fab, HEK293
B22: anti-CD3 Fab clone 7-E01 (Fab, V domains shown)
VH: B20 VH with V5Q, E8G
VL: B9 VL with A11S, K16R, P56L, S69R, Y94S, S96D, G97S, P99H, R100L
notes: Fab, HEK293
B23: anti-CD3 Fab clone 3-B06 (Fab, V domains shown)
VH: QVQLQQSGAEVKKPGASLKVSCKASGYTFTRYGFSWVRQAPGQGLEWMGWISAYNGNTNYAQKFQGRVTMTTDTSTSTAYMEMRSLRSDDTAVYYCARDRGYCSGGSCPGIDAFDIWGQGTMVTVSS
VL: SYVLTQPPSVSVAPGQTAKITCGGDNIENKYVHWYQQKPGQAPVVVVYDDSDRPSGIPDRFSGSNSGNTATLTITRVEAGDEADYYCQVWDSSSDRVVFGGGTKLTVL
notes: Fab, HEK293; not the anti-TrkB clone 3B06
B24: anti-CD3 Fab clone 7-C11 (Fab, V domains shown)
VH: EVQLVESGGGLVQPGGSLRLSCAASGFTSNTYAMSWVRQAPGKGLEWVSTISGSGSSTNYADSVKGRFTISRDSSKNTLYLQMNSLRAEDTAVYYCARIERYSYGIDYWGQGTLVTVSS
VL: NFMLTQPHSVSESPGKTVTISCTRNTGGIAANYVQWYHQRPGSAPTTVIYEDKQRPSGVPGRFSGSIDGSSNSASLTISGLQAEDEGDYYCHSSDNNNQVFGGGTKLTVL
notes: Fab, HEK293

Where a chain is given by its changes, count along the chain named.

By EC50 is commonly meant the concentration that produces a half-maximal response.

T1 sequence (P07766 23-126, stated change not applied, chain 1 of 2): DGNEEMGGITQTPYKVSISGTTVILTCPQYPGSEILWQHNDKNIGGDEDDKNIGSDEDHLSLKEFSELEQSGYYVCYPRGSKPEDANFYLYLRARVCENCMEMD
T1 sequence (P04234 22-105, stated change not applied, chain 2 of 2): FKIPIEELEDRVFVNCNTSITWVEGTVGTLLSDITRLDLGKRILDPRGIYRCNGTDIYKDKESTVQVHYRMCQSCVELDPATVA

This test addresses T1, biotinylated His-Avi-tagged human CD3δ/ε heterodimer (human, UniProt P07766 23-126; P04234 22-105, biotinylated).
T1 construct: bought, expressed from HEK293; also called CD30/8; Biotin-CD3
Nature of the test: ELISA. (In an ELISA, binding on a coated surface is turned into a signal by an enzyme label.)
In the case of B1, the concentration giving a half-maximal response (EC50) came to 23.9 µg/mL. With B2 the figure was 23.9 µg/mL. For B3, a half-maximal response (EC50) required 47.7 µg/mL. In turn, B4 gave a 50% effective concentration (EC50) of 7.9 µg/mL. The value for B5 was 7.2 µg/mL; that for B6 was 38.2 µg/mL; that for B7 was 19.2 µg/mL. With B8 the figure was 6.3 µg/mL; with B9, 34.9 µg/mL. The value for B10 was 3.6 µg/mL. As to B11, the EC50 is 12.1 µg/mL. The value for B12 was 5.9 µg/mL; that for B13 was 73.8 µg/mL. As to B14, the EC50 turned out to be 4.3 µg/mL. This EC50 is about 17-fold lower than that of the molecule before.

With B15, the EC50 was 6.8 µg/mL. The value for B16 was 5.2 µg/mL; that for B17 was 10.9 µg/mL. The value for B18 was 174 µg/mL. The value for B19 was 11.4 µg/mL. On to B20, for which the concentration for a half-maximal effect (EC50) worked out at 19.5 µg/mL. Compared with the last molecule, the EC50 is about 1.7-fold higher.

Molecule B21 yielded a half-maximal effective concentration (EC50) of 16.8 µg/mL. With B22 the figure was 7.9 µg/mL; with B23, 16.9 µg/mL. With B24 the figure was 52.3 µg/mL.
